# According to publication PMC3553997 (Nucleic Acids Research, 2012):
# T1: TreR (TM0393) (Thermotoga maritima, UniProt Q9WYM4)
# T1 sequence (Q9WYM4 1-371): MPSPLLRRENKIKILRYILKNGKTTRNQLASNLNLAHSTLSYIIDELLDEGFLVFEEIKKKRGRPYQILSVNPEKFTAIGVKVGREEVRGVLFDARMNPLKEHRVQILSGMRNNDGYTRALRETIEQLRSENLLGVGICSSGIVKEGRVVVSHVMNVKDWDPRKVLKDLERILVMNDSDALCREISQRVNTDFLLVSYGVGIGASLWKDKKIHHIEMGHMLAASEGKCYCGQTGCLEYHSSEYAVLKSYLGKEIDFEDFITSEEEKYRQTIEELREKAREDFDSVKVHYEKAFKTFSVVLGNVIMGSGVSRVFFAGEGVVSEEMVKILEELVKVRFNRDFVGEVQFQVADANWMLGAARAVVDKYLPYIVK
# T2: IolR (Thermotoga maritima MSB8, UniProt Q9WYP2 1-383)
# T2 sequence: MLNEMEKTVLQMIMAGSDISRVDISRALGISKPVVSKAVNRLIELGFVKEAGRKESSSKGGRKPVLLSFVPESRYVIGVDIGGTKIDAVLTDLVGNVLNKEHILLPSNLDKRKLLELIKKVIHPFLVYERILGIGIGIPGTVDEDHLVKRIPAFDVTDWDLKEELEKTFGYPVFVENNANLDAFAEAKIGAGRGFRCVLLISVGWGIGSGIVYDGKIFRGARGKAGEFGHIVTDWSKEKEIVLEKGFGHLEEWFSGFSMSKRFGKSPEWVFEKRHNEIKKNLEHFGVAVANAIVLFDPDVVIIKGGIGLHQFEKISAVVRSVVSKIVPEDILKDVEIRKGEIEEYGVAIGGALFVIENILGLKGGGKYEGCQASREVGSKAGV
# T3: XylR (Thermotoga maritima MSB8, UniProt Q9WXW5 1-378)
# T3 sequence: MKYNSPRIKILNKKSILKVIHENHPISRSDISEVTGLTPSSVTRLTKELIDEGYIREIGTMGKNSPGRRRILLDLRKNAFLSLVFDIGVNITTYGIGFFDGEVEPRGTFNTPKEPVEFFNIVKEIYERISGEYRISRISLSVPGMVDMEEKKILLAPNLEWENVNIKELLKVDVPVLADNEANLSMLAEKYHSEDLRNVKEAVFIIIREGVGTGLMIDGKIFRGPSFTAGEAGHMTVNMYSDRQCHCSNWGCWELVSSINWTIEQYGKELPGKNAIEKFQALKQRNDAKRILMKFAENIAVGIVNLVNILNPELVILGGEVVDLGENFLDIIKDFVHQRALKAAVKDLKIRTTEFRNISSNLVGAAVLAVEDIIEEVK
# T4: TreR (Thermotoga maritima, UniProt Q9WYM4 1-371)
# T4 sequence: T1 sequence (Q9WYM4 1-371)
# T5: ChiR (Thermotoga maritima, UniProt Q9WZR5 1-355)
# T5 sequence: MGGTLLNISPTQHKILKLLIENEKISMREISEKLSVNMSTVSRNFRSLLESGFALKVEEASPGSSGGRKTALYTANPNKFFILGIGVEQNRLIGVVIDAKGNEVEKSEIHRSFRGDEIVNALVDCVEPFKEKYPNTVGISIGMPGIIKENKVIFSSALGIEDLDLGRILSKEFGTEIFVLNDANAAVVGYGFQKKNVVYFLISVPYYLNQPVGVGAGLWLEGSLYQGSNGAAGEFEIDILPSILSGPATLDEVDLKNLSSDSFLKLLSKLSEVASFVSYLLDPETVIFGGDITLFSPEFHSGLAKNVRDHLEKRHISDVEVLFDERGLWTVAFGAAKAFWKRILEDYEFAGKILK
# T6: BglR (Thermotoga maritima MSB8, UniProt Q9WXN9 1-381)
# T6 sequence: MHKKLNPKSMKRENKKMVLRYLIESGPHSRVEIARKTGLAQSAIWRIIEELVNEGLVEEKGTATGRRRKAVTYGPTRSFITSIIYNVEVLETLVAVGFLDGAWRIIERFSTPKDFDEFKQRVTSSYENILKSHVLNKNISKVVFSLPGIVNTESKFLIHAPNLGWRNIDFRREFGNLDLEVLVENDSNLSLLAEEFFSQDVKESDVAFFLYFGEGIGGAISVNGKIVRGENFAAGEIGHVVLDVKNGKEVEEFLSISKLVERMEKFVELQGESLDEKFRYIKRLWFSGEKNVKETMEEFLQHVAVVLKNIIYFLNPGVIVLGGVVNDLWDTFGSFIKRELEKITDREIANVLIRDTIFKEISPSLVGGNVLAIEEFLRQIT
# T7: ManR (Thermotoga maritima, UniProt Q9X0V1 1-368)
# T7 sequence: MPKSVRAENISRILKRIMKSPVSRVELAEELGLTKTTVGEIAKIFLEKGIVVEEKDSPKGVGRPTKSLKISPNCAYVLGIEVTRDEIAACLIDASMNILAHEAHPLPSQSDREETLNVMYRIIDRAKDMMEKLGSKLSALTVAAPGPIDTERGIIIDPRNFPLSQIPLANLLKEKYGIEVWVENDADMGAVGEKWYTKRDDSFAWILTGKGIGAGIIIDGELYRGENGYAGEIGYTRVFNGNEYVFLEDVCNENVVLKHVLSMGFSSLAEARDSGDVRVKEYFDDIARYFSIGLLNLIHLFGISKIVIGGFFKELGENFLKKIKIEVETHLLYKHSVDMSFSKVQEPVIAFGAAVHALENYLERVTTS
# B1: iolR site (dsDNA)
# DNA 1: TAGTTGACAAATTGATTATAATGTGGTTGGTTAGTTAACGATAACAAACGAAAGGAATGGAAAAATGCTGAAT
# DNA 2: ATTCAGCATTTTTCCATTCCTTTCGTTTGTTATCGTTAACTAACCAACCACATTATAATCAATTTGTCAACTA
# B2: xylR site (dsDNA)
# DNA 1: ACCTTGATTTTAAATTATTTCCTGCATATAATTAATGTGAACATAATAT
# DNA 2: ATATTATGTTCACATTAATTATATGCAGGAAATAATTTAAAATCAAGGT
# B3: treT site (dsDNA)
# DNA 1: TGATTAATTGTGTATTAATTCAAGTTACGAATAAATTTGGGAGGGATCA
# DNA 2: TGATCCCTCCCAAATTTATTCGTAACTTGAATTAATACACAATTAATCA
# B4: chiR site (dsDNA)
# DNA 1: ACAATAATTTATGAAGTTGTTTGCGGCATGCAACTAACTGATGGGAGGG
# DNA 2: CCCTCCCATCAGTTAGTTGCATGCCGCAAACAACTTCATAAATTATTGT
# B5: xynA site (dsDNA)
# DNA 1: TCGAAGAAGCTCAATTTTTTCTTTACAAAAAATAACTTTAGGGTGATAT
# DNA 2: ATATCACCCTAAAGTTATTTTTTGTAAAGAAAAAATTGAGCTTCTTCGA
# B6: bglR site (dsDNA)
# DNA 1: GAGTCATATCGTTATAATTTCTTTCTGAGGAAGATAGATAAGAAGCAGG
# DNA 2: CCTGCTTCTTATCTATCTTCCTCAGAAAGAAATTATAACGATATGACTC
# B7: xylA site (dsDNA)
# DNA 1: CCCAAGATTTTATATAATTGATTGATAGAAAAAATTTAGGGAGGTGTTT
# DNA 2: AAACACCTCCCTAAATTTTTTCTATCAATCAATTATATAAAATCTTGGG
# B8: manB site (dsDNA)
# DNA 1: CGATGACCCTGATAAATAAGTAAAGTTTACTAATTAACGGGAGGTATCG
# DNA 2: CGATACCTCCCGTTAATTAGTAAACTTTACTTATTTATCAGGGTCATCG
# B9: mtpE site (dsDNA)
# DNA 1: TAACATAATCTTTTTATTAGTAAGTGTTATTTATTAACATCCATTTAAA
# DNA 2: TTTAAATGGATGTTAATAAATAACACTTACTAATAAAAAGATTATGTTA
# B10: xloE site (dsDNA)
# DNA 1: AGATTTACATTAAAATATTTCCCGAAAGGAAAAAATATAACATACAATC
# DNA 2: GATTGTATGTTATATTTTTTCCTTTCGGGAAATATTTTAATGTAAATCT
# Columns and labels:
# TreR (TM0393) = biological target: T1, TreR (TM0393); experiment: EMSA, loss of operator DNA binding; conditions: 50 nM protein, TM0392/treT operator DNA; pH 8.0, 150 mM KCl, 5 mM MgCl2, 60°C
# IolR = biological target: T2, IolR; experiment: EMSA
# XylR = biological target: T3, XylR; experiment: EMSA
# TreR = biological target: T4, TreR; experiment: EMSA
# ChiR = biological target: T5, ChiR; experiment: EMSA
# BglR = biological target: T6, BglR; experiment: EMSA
# ManR = biological target: T7, ManR; experiment: EMSA
molecule,measurement,setting,value
OC[C@H]1O[C@H](O[C@H]2O[C@H](CO)[C@@H](O)[C@H](O)[C@H]2O)[C@H](O)[C@@H](O)[C@@H]1O [Trehalose],Tested potential ligands / (Sugar),TreR (TM0393),0.2 mM
B1,binding signal,IolR,2.5 nM
B2,binding signal,XylR,2.5 nM
B3,binding signal,TreR,10 nM
B4,binding signal,ChiR,0.5 nM
B5,binding signal,XylR,2.5 nM
B6,binding signal,BglR,2.5 nM
B7,binding signal,XylR,5 nM
B8,binding signal,ManR,10 nM
B9,binding signal,ManR,25 nM
B10,binding signal,XylR,5 nM
